US20030175703, “RNA aptamers and methods for identifying the same” (published 2003)

B1: E10-8 (ssRNA)
RNA: GGGAGAGAGGAAGAGGGAUGGGCCAAAAGCGGACUGAAGACGUGUUUCCCCCAUCUCCGUGACAUAACCCAGAGGUCGAU
B2: D4-7 (ssRNA)
RNA: GGGAGAGAGGAAGAGGGAUGGGAUAAUAGCCCCAGCGAGAUAAUACUUGGCCCCGCUACUAACAUAACCCAGAGGUCGAU
B3: F11-7 (ssRNA)
RNA: GGGAGAGAGGAAGAGGGAUGGGAAAAUAGCCCCAGCGAGAUAAUACUUGGCCCCGCUAUUACCAUAACCCAGAGGUCGAU
B4: D7-5 (ssRNA)
RNA: GGGAGAGAGGAAGAGGGAUGGGAAACUAGCCUCAGCGAGAUAAUACUUGGCCCCGCUACUACCAUAACCCAGAGGUCGAU
B5: D7-2 (ssRNA)
RNA: GGGAGAGAGGAAGAGGGAUGGGAGAAUAGCCCCAGCGAGAUAAUACUUGGCCCCGCUAAUACCAUAACCCAGAGGUCGAU
B6: D7-4 (ssRNA)
RNA: GGGAGAGAGGAAGAGGGAUGGGAGAAUAGCCCCAGCGAGAUCGUACUUGGCCCCGCUAGUACCAUAACCCAGAGGUCGAU
B7: D6-7 (ssRNA)
RNA: GGGAGAGAGGAAGAGGGAUGGGUGCAUAGCCCCAGCGAGAUAAUACUUGGCCCCGCUACAACCAUAACCCAGAGGUCGAU
B8: D7-9 (ssRNA)
RNA: GGGAGAGAGGAAGAGGGAUGGGUAAAUAGCCCCAGCGAGAUUCUACUUGGCCCCGCUACUACCAUAACCCAGAGGUCGAU
B9: D8-1 (ssRNA)
RNA: GGGAGAGAGGAAGAGGGAUGGGAAAAUAGCCCCAGCGAGAUGAUACUUGGCCCCGCUAAUACCAUAACCCAGAGGUCGAU
B10: D4-2 (ssRNA)
RNA: GGGAGAGAGGAAGAGGGAUGGGAACUUAGCCUCAGCGAGAUAACGCUUGGCCCCGCUAAGACCAUAACCCAGAGGUCGAU
B11: D7-6 (ssRNA)
RNA: GGGAGAGAGGAAGAGGGAUGGGAAAAUAGCCCCAGCGAGAUAAUACUUGGCCCCGCUAGCACCAUAACCCAGAGGUCGAU
B12: D6-3 (ssRNA)
RNA: GGGAGAGAGGAAGAGGGAUGGGAAAAUAGCCCCAGCGAGAUAAUACUUGGCCCCGCUGUUACCAUAACCCAGAGGUCGAU
B13: D6-10 (ssRNA)
RNA: GGGAGAGAGGAAGAGGGAUGGGCAGAUAGCCACAGCGAGAUCAUACUUGGCCCCGCUACUACCAUAACCCAGAGGUCGAU
B14: D6-9 (ssRNA)
RNA: GGGAGAGAGGAAGAGGGAUGGGAAAUUUGCCCCAGCGAGAUAAUACUUGGCCCCGCAACUACCAUAACCCAGAGGUCGAU
B15: D7-1 (ssRNA)
RNA: GGGAGAGAGGAAGAGGGAUGGGAGAAUGGCCCCAGCGAGAUUAUACUUGGCCCCGCCAAUACCAUAACCCAGAGGUCGAU
B16: F11-8 (ssRNA)
RNA: GGGAGAGAGGAAGAGGGAUGGGAGAUUAGCCCCAGCGAGAUAAUACUUGGCCCCGCUACUACCAUAACCCAGAGGUCGAU
B17: D4-9 (ssRNA)
RNA: GGGAGAGAGGAAGAGGGAUGGGUAAGUUGCCCCAGCGAGAUAGUACUUGGCCCCGCUACUAACAUAACCCAGAGGUCGAU
B18: E10-12 (ssRNA)
RNA: GGGAGAGAGGAAGAGGGAUGGGAAAAUAGCCCCAGCGAGAUAAUACUUGGCCCCGCGAACACCAUAACCCAGAGGUCGAU
B19: D4-3 (ssRNA)
RNA: GGGAGAGAGGAAGAGGGAUGGGUAAAUAGCCCCAGCGAGAUAAUACUUGGCCCCGCAACUACCAUAACCCAGAGGUCGAU
B20: D6-2 (ssRNA)
RNA: GGGAGAGAGGAAGAGGGAUGGGAAAAUAGCCCCAGCGAGAUAAUACUUGGCCCCGCUACAACCAUAACCCAGAGGUCGAU
B21: D4-5 (ssRNA)
RNA: GGGAGAGAGGAAGAGGGAUGGGAGAAUAGCCCCAGCGAGAUAAUCCUUGGCCCCGCUACUGCCAUAACCCAGAGGUCGAU
B22: E9-6 (ssRNA)
RNA: GGGAGAGAGGAAGAGGGAUGGGCCAGAAGCUAAACACUCAUAACCACGCUGAACCCCCCAACCAUAACCCAGAGGUCGAU
B23: E9-9 (ssRNA)
RNA: GGGAGAGAGGAAGAGGGAUGGGCCAGAACACCAGUGAACCCCCCAGCCCCUUCUCACCAGAUCAUAACCCAGAGGUCGAU
B24: E9-10 (ssRNA)
RNA: GGGAGAGAGGAAGAGGGAUGGGCCAGAACCAACUGCGGUGAACCCCCCAUACCGCGACACAUCAUAACCCAGAGGUCGAU
B25: F11-6 (ssRNA)
RNA: GGGAGAGAGGAAGAGGGAUGGGCCAGCAACGUCACACGAACGGAAUACCCCCCAUUGAAAACCAUAACCCAGAGGUCGAU
B26: E10-4 (ssRNA)
RNA: GGGAGAGAGGAAGAGGGAUGGGUCUUAGAUAUAGAACUCCGAGAGGACUGACCGUACAGAACCAUAACCCAGAGGUCGAU
B27: E9-5 (ssRNA)
RNA: GGGAGAGAGGAAGAGGGAUGGGCCAGAAGCGACACUAACGCUGAACCCCCCAGUCCCUUCACGUGCAUAACCCAGAGGUCGAU
B28: F11-10 (ssRNA)
RNA: GGGAGAGAGGAAGAGGGAUGGGCUCGGCAGAAGACACGCAUUCACCUGGUGCCACCUCGUAACAUAACCCAGAGGUCGAU
B29: E9-4 (ssRNA)
RNA: GGGAGAGAGGAAGAGGGAUGGGAGCCCGAGAAAAUAACGCGUUCCACCAUACUACUAAGCCAUAACCCAGAGGUCGAU
B30: E9-2 (ssRNA)
RNA: GGGAGAGAGGAAGAGGGAUGGGAUACCGAGCACGCAAAACACACAAUGCCCAAGCAGGACUCAUAACCCAGAGGUCGAU
B31: E9-8 (ssRNA)
RNA: GGGAGAGAGGAAGAGGGAUGGGCCAGAAGGAACUAAACACCUGAACCCCCCAUCGCGAGAGACAUAACCCAGAGGUCGAU
B32: E10-11 (ssRNA)
RNA: GGGAGAGAGGAAGAGGGAUGGGCCAGAAGCGCUCACUACAACGUUGAACCCCCCGUCCACACCAUAACCCAGAGGUCGAU
B33: D7-7 (ssRNA)
RNA: GGGAGAGAGGAAGAGGGAUGGGAGAAUACGCCUAGCGAGAAGAUACUUGGCCCCCGUGCAACCAUAACCCAGAGGUCGAU
B34: E10-6 (ssRNA)
RNA: GGGAGAGAGGAAGAGGGAUGGGGCCGUCGCCAGGAAUCAAACUGCUACUCCAUCCCGGGCACAUAACCCAGAGGUCGAU
B35: E9-3 (ssRNA)
RNA: GGGAGAGAGGAAGAGGGAUGGGCCAAAAGCGCAUACACCUGCGUGUUUCCCCCGCCAACAGUCAUAACCCAGAGGUCGAU
B36: D6-4 (ssRNA)
RNA: GGGAGAGAGGAAGAGGGAUGGGAAAUUUGCCCUAGCGAGAUUAUACUUGGCCCCGCGAAAAACCAUAACCCAGAGGUCGAU
B37: 9.27 (ssRNA)
RNA: GGGAGAGAGGAAGAGGGAUGGGUAAUAACUGUAUGGUGAACCCACCCAAACUCCCAUGGCUACAUAACCCAGAGGUCGAUAGUACUGGAUCCCCCC
modifications: 2'-F pyrimidines
B38: 9.20 (ssRNA)
RNA: GGGAGAGAGGAAGAGGGAUGGGGACUAUACCGGCAAUCGUGCAUCCCCUGGACCUAACAAUACAUAACCCAGAGGUCGAUAGUACUGGAUCCCCCC
modifications: 2'-F pyrimidines
B39: 9.26 (ssRNA)
RNA: GGGAGAGAGGAAGAGGGAUGGGUGAUAACCACUCUGGUGAACCCCUCCCGACUUGCUCGCACAUAACCCAGAGGUCGAUAGUACUGGAUCCCCCC
modifications: 2'-F pyrimidines
B40: 9.25 (ssRNA)
RNA: GGGAGAGAGGAAGAGGGAUGGGGACCAUAACUCUAACGGGUGAAUCCCGCAUCUCGACAAUACAUAACCCAGAGGUCGAUAGUACUGGAUCCCC
modifications: 2'-F pyrimidines
B41: 9.19 (ssRNA)
RNA: GGGAGAGAGGAAGAGGGAUGGGACCAUAACGACUACUCGUGAAUCCCACCAUCAGCGCACAACAUAACCCAGAGGUCGAUAGUACUGGAUCCCCCC
modifications: 2'-F pyrimidines

Each binder was assayed against coagulation factor Xa (FXa) (UniProt P00742;P00742 P00742:41-179,P00742:235-488) (assay: not given).
Sequence of coagulation factor Xa (FXa) (P00742 41-179, chain 1 of 2): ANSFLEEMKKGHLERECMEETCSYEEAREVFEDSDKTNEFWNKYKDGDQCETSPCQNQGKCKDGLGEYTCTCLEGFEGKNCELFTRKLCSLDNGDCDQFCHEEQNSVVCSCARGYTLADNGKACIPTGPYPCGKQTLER
Sequence of coagulation factor Xa (FXa) (P00742 235-488, chain 2 of 2): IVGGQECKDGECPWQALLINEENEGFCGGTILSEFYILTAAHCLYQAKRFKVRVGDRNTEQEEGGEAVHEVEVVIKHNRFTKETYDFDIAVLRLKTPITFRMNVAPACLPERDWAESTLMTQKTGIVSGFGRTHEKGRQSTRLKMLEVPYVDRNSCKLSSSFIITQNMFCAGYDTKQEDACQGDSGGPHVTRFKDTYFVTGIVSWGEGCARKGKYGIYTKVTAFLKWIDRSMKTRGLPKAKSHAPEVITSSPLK

How did the Kd turn out when B1 was run?
The Kd was 28.4 nM.

Does B2 bind?
Result: binds

How did the Kd turn out when B3 was run?
The Kd was 3.6 nM.

How did the Kd turn out when B4 was run?
Its Kd is 26.1 nM.

For B5, which Kd is on record?
Its Kd is 8.1 nM.

For B6, which Kd is on record?
Its Kd is 39.3 nM.

For B7, which Kd is on record?
The Kd was 13.2 nM.

With B8 as the binder, how does the Kd read?
The Kd was 2.63 nM.

B9 was tested. Which Kd did it give?
The Kd was 4.8 nM.

For B10, which Kd is on record?
Its Kd is 540 nM.

With B11 as the binder, how does the Kd read?
The Kd was 3.8 nM.

With B12 as the binder, how does the Kd read?
Its Kd is 5.9 nM.

B13 was tested. Which Kd did it give?
Its Kd is 18.7 nM.

B14 was tested. Which Kd did it give?
Its Kd is 6.5 nM.

With B15 as the binder, how does the Kd read?
Its Kd is 4.7 nM.

How did the Kd turn out when B16 was run?
The Kd was 2.2 nM.

For B17, which Kd is on record?
The Kd was greater than 240 nM.

B18 was tested. Which Kd did it give?
Its Kd is 11.7 nM.

Which Kd does the source give for B19 here?
Its Kd is 65.5 nM.

With B20 as the binder, how does the Kd read?
Its Kd is 4.6 nM.

B21 was tested. Which Kd did it give?
Its Kd is 21.7 nM.

B22 was tested. Which Kd did it give?
The Kd was 95.1 nM.

Which Kd does the source give for B23 here?
Its Kd is 52.8 nM.

B24 was tested. Which Kd did it give?
Its Kd is 130 nM.

Which Kd does the source give for B25 here?
The Kd was 33.6 nM.

Which Kd does the source give for B26 here?
Its Kd is 37.4 nM.

With GAGAGCCCCAGCGAGAUAAUACUUGGCCCCGCUCUU (ssRNA) [11.F7t] as the binder, how does the Kd read?
Its Kd is roughly 1.5 nM.

For B27, which Kd is on record?
The Kd was 53.5 nM.

Which Kd does the source give for B28 here?
Its Kd is 84.4 nM.

How did the Kd turn out when B29 was run?
Its Kd is 65 nM.

With B30 as the binder, how does the Kd read?
Its Kd is 58.6 nM.

With B31 as the binder, how does the Kd read?
Its Kd is 29.8 nM.

For B32, which Kd is on record?
Its Kd is 27.1 nM.

B33 was tested. Which Kd did it give?
The Kd was 5.8 nM.

B34 was tested. Which Kd did it give?
The Kd was 85.7 nM.

How did the Kd turn out when B35 was run?
The Kd was 46.5 nM.

For B36, which Kd is on record?
The Kd was 8.5 nM.

These binders were tested against coagulation factor IXa (FIXa) (UniProt P00740;P00740 P00740:47-191,P00740:227-461) (assay: filter; double-filter nitrocellulose).
Sequence of coagulation factor IXa (FIXa) (P00740 47-191, chain 1 of 2): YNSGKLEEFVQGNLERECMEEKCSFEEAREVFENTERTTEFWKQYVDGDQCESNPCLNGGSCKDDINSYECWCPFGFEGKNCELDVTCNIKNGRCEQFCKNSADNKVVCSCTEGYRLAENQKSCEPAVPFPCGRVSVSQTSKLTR
Sequence of coagulation factor IXa (FIXa) (P00740 227-461, chain 2 of 2): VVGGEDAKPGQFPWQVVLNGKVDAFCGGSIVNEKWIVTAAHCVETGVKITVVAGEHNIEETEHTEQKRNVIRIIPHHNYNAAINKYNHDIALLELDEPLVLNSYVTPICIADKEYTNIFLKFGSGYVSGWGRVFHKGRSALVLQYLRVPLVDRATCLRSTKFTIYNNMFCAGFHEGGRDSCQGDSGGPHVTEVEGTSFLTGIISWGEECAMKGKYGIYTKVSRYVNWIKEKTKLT

With B37 as the binder, how does the Kd read?
The Kd was 1.64 nM.

For B38, which Kd is on record?
Its Kd is 0.49 nM.

How did the Kd turn out when B39 was run?
The Kd was 0.49 nM.

Which Kd does the source give for B40 here?
Its Kd is 0.49 nM.

Which Kd does the source give for B41 here?
The Kd was 0.707 nM.
